# Source: US20150017120A1 (MIT, published 2015)
# Numbering of substitutions follows the chain as printed. Numbers in names are those of the source.
# B1: E76A IL-2 (ligand)
# chain: APTSSSTSSSTAEAQQQQQQQQQQQQHLEQLLMDLQELLSRMENYRNLKLPRMLTFKFYLPKQATELKDLQCLEDALGPLRHVLDLTQSKSFQLEDAENFISNIRVTVVKLKGSDNTFECQFDDESATVVDFLRRWIAFCQSIISTSPQ
# notes: also called E76 mutants
# B2: E76F mouse IL-2 (ligand)
# chain: B1 chain with A76F
# notes: also called E76 mutants
# B3: E76G IL-2 (ligand)
# chain: B1 chain with A76G
# notes: also called E76 mutants
# B4: E76R mouse IL-2 (ligand)
# chain: B1 chain with A76R
# notes: also called E76 mutants
# B5: mIL-2 QQ 6.2-4 (ligand)
# chain: B1 chain with N44D, Y45S, K49R, K68E, A76E, G78E, H82Q, S126P, D131G
# B6: mIL-2 QQ 6.2-10 (ligand)
# chain: B1 chain with N44D, Y45H, K49R, K62E, K68E, A76E, G78E, H82Q, S126P
# notes: Reversion mutant
# B7: mIL-2 QQ 6.2-13 (ligand)
# chain: B1 chain with N44D, Y45H, K49R, K62E, A76E, G78E, H82Q, S126P
# notes: Reversion mutant
# B8: D265AFc/IL-2 (Fc fusion)
# chain 1: EPRVPITQNPCPPLKECPPCAAPDLLGGPSVFIFPPKIKDVLMISLSPMVTCVVVAVSEDDPDVQISWFVNNVEVHTAQTQTHREDYNSTLRVVSALPIQHQDWMSGKEFKCKVNNRALPSPIEKTISKPRGPVRAPQVYVLPPPAEEMTKKEFSLTCMITGFLPAEIAVDWTSNGRTEQNYKNTATVLDSDGSYFMYSKLRVQKSTWERGSLFACSVVHEGLHNHLTTKTISRSLGKGGGSAPTSSSTSSSTAEAQQQQQQQQQQQQHLEQLLMDLQELLSRMENYRNLKLPRMLTFKFYLPKQATELKDLQCLEDELGPLRHVLDLTQSKSFQLEDAENFISNIRVTVVKLKGSDNTFECQFDDESATVVDFLRRWIAFCQSIISTSPQHHHHHH
# chain 2: EPRVPITQNPCPPLKECPPCAAPDLLGGPSVFIFPPKIKDVLMISLSPMVTCVVVAVSEDDPDVQISWFVNNVEVHTAQTQTHREDYNSTLRVVSALPIQHQDWMSGKEFKCKVNNRALPSPIEKTISKPRGPVRAPQVYVLPPPAEEMTKKEFSLTCMITGFLPAEIAVDWTSNGRTEQNYKNTATVLDSDGSYFMYSKLRVQKSTWERGSLFACSVVHEGLHNHLTTKTISRSLGKGGGSDYKDDDDK
# notes: also called D265A Fc/wt mIL-2
# B9: mIL-2 QQ 6.2-8 (ligand)
# chain: APTSSSTSSSTAEAQQQQQQQQHLEQLLMDLQELLSRMEDHRNLRLPRMLTFKFYLPKQATELEDLQCLEDELEPLRQVLDLTQSKSFQLEDAENFISNIRVTVVKLKGSDNTFECQFDDEPATVVDFLRRWIAFCQSIISTSPR
# notes: Reversion mutant
# B10: mIL-2 QQ 6.2-11 (ligand)
# chain: APTSSSTSSSTAEAQQQQQQQQQHLEQLLMDLQELLSRMEDSRNLRLPRMLTFKFYLPEQATELKDLQCLEDELEPLRQVLDLTQSKSFQLEDAENFISNIRVTVVKLKGSDNTFECQFDDEPATVVDFLRRWIAFCQSIISTSPQ
# notes: Reversion mutant
# What was measured:
# [1] = target: T1, soluble murine CD25 (murine, UniProt P01590 22-236, limits assumed); assay: yeast surface display, labeling with soluble CD25, flow cytometry
# T1 construct: also called soluble CD25; mouse CD25
# T1 sequence (looked up): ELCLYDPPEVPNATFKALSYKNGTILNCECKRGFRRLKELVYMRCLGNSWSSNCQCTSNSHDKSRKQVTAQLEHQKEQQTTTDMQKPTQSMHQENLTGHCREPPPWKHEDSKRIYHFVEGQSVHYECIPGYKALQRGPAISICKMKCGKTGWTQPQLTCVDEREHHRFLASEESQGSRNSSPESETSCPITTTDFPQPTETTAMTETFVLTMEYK
# Text: While all H82 and Q121 mutants retained CD25 binding, no CD25 binding was detected for E76 mutants (FIG. 4).
# [2] = target: T1, soluble murine CD25; assay: yeast surface display, titration with soluble murine CD25
# [3] = target: T1, soluble murine CD25; assay: method not stated (legend of the schematic of Fc/IL-2)
Binder,binding result [1],binding result [2],other results
B1,no binding (tested: 50 nM soluble CD25),,
B2,no binding (tested: 5 or 50 nM soluble CD25),,
B3,no binding (tested: 50 nM soluble CD25),,
B4,no binding (tested: 5 or 50 nM soluble CD25),,
B5,,binds,
B6,,binds,
B7,,binds,
B8,,,Kd [3]: ~50 nM
B9,,binds,
B10,,binds,
